Measurements: patent publication US6864054 (INSTITUTE OF MOLECULAR AND CELL BIOLOGY, dated 2005)
Positions count from the first letter of the chain named. Numbers in names are those of the source.

B1: MBP-CBP (residues 1808-1852) fusion protein (other)
chain: GCKRKTNGGCPVCKQLIALCCYHAKHCQENKCPVPFCLNIKHKLR
notes: Bacterially expressed
B2: GST-16E6 N-terminal half (1-84) (other)
chain: MFQDPQERPRKLPQLCTELQTTIHDIILECVYCKQQLLRREVYDFAFRDLCIVYRDGNPYAVCDKCLKFYSKYSEYRHYCYSLY
B3: GST-16E6 without C-terminal residues 148-151 (other)
chain: MFQDPQERPRKLPQLCTELQTTIHDIILECVYCKQQLLRREVYDFAFRDLCIVYRDGNPYAVCDKCLKFYSKYSEYRHYCYSLYGTTLEQQYNKPLCDLLIRCINCQKPLCPEEKQRHLDKKQRFHNIRGRWTGRCMSCCRSSRTRR
B4: GST-Mdm2 (466-484) (other, human, UniProt Q00987 466-484, looked up, not shown: a dimerising Fc or GST)
chain: KKLKKRNKPCPVCRQPIQM
notes: also called wild type Mdm2 TRAM; Mdm2 TRAM
B5: GST-16E6 C-terminal half (85-151) (other)
chain: GTTLEQQYNKPLCDLLIRCINCQKPLCPEEKQRHLDKKQRFHNIRGRWTGRCMSCCRSSRTRRETQL
B6: GST-6E6 (other)
chain: MESANASTSATTIDQLCKTFNLSMHTLQINCVFCKNALTTAEIYSYAYKHLKVLFRGGYPYAACACCLEFHGKINQYRHFDYAGYATTVEEETKQDILDVLIRCYLCHKPLCEVEKVKHILTKARFIKLNCTWKGRCLHCWTTCMEDMLP
notes: mature
B7: in vitro translated and radiolabeled HPV-16 E6 (other)
chain: MFQDPQERPRKLPQLCTELQTTIHDIILECVYCKQQLLRREVYDFAFRDLCIVYRDGNPYAVCDKCLKFYSKYSEYRHYCYSLYGTTLEQQYNKPLCDLLIRCINCQKPLCPEEKQRHLDKKQRFHNIRGRWTGRCMSCCRSSRTRRETQL
B8: GST-16E6 (other)
chain: B7 chain
B9: in vitro translated HPV-16 E6 L50G protein (other)
chain: B7 chain with L50G
B10: GST-11E6 (other)
chain: MESKDASTSATSIDQLCKTFNLSLHTLQIQCVFCRNALTTAEIYAYAYKNLKVVWRDNFPFAACACCLELQGKINQYRHFNYAAYAPTVEEETNEDILKVLIRCYLCHKPLCEIEKLKHILGKARFIKLNNQWKGRCLHCWTTCMEDLLP
B11: in vitro translated HPV-11 E6 protein (other)
chain: B10 chain
notes: mature

Legend:
[1] = biological target: B8; assay: GST micro-affinity column, purified recombinant proteins, western blot
[2] = biological target: T1, in vitro translated 35S-labeled CBP (1621-1877) (UniProt P45481 1621-1877); assay: GST-E6 fragment micro-affinity column
T1 construct: also called in vitro translated CBP II
T1 sequence (looked up): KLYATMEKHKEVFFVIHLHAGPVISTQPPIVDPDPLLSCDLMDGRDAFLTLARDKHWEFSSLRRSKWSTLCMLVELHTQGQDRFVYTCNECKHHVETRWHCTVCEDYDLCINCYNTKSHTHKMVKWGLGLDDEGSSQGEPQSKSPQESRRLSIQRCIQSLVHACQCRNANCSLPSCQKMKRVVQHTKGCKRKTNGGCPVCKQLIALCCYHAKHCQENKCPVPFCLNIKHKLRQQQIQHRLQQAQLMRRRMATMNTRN

[3] = biological target: T2, in vitro translated radiolabeled TFIIB (UniProt Q00403 1-316); assay: GST micro-column pull-down, IVT protein
T2 sequence (looked up): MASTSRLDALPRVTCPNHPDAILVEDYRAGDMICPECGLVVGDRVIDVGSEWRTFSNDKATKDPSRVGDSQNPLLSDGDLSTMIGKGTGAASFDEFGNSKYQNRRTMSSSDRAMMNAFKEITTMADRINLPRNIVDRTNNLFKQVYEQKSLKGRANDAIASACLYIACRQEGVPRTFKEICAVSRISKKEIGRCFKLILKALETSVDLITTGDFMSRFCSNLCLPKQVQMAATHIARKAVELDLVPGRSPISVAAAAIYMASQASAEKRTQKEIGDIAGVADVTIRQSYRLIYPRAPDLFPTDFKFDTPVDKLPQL

[4] = biological target: in vitro translated 35S-methionine labelled p53 (wild type) (UniProt P04637 1-393); assay: GST micro-column pull-down, IVT protein
[5] = biological target: T1, in vitro translated 35S-labeled CBP …; assay: GST-E6 micro-affinity column, IVT CBP II
[6] = biological target: T3, GST-CBP II (residues 1621-1877) (UniProt P45481 1621-1877); assay: GST micro-affinity column, IVT E6
T3 construct: also called GST-CBP II domain
T3 sequence: T1 sequence (looked up)

[7] = biological target: T4, GST-CBP I (residues 461-662) (UniProt P45481 461-662); assay: GST micro-affinity column, IVT radiolabelled E6
T4 construct: range 461-662; also called GST-CBP I (461-662)
T4 sequence: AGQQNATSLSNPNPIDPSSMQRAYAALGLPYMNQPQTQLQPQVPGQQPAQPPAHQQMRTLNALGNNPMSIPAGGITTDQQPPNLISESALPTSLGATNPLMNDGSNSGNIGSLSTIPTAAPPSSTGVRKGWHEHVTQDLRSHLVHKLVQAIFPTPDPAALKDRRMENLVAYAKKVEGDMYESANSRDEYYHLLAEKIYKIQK

[8] = biological target: T5, GST (control) (UniProt P08515 1-218 = GST); assay: GST micro-affinity column, IVT radiolabelled E6
T5 construct: also called control GST column; GST alone

[9] = biological target: B1; assay: MBP micro-affinity column, purified recombinant proteins, western blot
[10] = biological target: T6, GST-E6AP (UniProt Q05086 24-875); assay: GST-E6AP micro-affinity column, IVT E6
T6 sequence: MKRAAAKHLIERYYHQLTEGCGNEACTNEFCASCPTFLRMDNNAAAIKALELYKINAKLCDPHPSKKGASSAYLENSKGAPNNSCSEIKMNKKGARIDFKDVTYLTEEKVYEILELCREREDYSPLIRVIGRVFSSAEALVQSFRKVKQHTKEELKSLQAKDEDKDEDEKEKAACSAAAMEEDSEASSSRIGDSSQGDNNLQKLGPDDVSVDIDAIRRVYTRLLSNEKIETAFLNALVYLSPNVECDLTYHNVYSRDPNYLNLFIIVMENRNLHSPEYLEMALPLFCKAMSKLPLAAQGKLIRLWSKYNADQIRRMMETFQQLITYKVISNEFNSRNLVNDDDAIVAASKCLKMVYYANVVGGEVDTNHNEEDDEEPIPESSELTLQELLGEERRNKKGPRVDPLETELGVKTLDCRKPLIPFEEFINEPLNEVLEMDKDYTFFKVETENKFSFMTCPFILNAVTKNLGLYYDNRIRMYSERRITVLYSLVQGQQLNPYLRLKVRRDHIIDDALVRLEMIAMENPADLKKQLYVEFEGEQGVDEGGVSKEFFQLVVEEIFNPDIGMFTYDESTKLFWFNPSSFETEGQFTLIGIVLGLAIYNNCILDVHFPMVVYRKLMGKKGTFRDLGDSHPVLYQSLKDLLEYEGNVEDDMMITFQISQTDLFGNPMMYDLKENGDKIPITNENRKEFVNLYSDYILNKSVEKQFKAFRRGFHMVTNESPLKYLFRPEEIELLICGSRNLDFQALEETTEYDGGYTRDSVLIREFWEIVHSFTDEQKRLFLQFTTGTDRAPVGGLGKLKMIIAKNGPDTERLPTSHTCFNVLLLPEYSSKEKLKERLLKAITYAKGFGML

[11] = biological target: T7, GST-CBP fusion protein (CBP residues not stated) (UniProt P45481 1621-1877); assay: GST-CBP micro-affinity column, IVT E6
T7 sequence: T1 sequence (looked up)

in vitro translated 35S-methionine labelled p53 (wild type), sequence (P04637 whole entry): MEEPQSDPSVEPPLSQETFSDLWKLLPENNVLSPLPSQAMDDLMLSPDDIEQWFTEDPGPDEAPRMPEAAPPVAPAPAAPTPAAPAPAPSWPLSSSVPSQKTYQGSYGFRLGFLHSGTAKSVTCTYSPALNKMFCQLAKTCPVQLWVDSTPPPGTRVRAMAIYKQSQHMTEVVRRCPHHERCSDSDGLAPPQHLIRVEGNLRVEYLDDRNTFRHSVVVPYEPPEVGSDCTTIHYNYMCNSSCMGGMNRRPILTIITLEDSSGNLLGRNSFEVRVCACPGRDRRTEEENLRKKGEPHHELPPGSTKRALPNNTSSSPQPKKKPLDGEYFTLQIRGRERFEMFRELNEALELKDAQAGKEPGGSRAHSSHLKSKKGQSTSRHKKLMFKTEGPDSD
T5 sequence (P08515 whole entry): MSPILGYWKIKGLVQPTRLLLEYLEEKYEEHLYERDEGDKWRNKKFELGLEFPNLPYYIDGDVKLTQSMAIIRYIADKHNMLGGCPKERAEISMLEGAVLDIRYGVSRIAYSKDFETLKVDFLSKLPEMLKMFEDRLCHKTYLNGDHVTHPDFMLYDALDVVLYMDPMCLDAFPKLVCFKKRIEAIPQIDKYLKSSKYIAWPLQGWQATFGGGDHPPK

Question: Does B1 bind [1]?
Answer: Result: binds

Question: Does LIRCINCQKPLCPEEKQRHLDKKQRFHNIRGRWTGRCMSCCRSSRTRR (other) [GST-16E6 (amino acids 100-147)] bind [2]?
Answer: Result: binds

Question: Does B2 bind [2]?
Answer: Result: no binding

Question: Does B3 bind [2]?
Answer: Result: binds

Question: Does B4 bind [3]?
Answer: Result: binds

Question: Does B4 bind [4]?
Answer: Result: binds

Question: Does B5 bind [2]?
Answer: Result: binds

Question: Does B6 bind [5]?
Answer: Result: no binding

Question: Does B7 bind [6]?
Answer: Result: binds

Question: Does B7 bind [7]?
Answer: Result: no binding

Question: Does B7 bind [8]?
Answer: Result: no binding

Question: Which results are given for B8?
Answer: binding result [9]: binds; binding result [5]: binds

Question: Does B9 bind [10]?
Answer: Result: no binding

Question: Does B10 bind [5]?
Answer: Result: no binding

Question: Does B11 bind [11]?
Answer: Result: no binding

Question: Does B11 bind [10]?
Answer: Result: no binding

Question: Does GCKRKTNGGCPVCKQLIAL (other, UniProt P45481 1808-1826, looked up, not shown: a dimerising Fc or GST, also called CBP TRAM) [GST-CBP (1808-1826)] bind [3]?
Answer: Result: binds
